Data from paper PMC4306681.
Values belong to the substance of their own block, whether it stands above or below them.

Columns and labels:
[1] = target: sialidase C-treated Fc-tagged WT perlecan DII; test: pull-down; Fc-tagged proteins on protein-A agarose incubated with human LDL (10 μg in Fig. 1E/F with 500 ng protein; 1.5 μg in Fig. 5D); 20 mM HEPES pH 6.0, 10 mM NaCl, 1% BSA, room temperature 1 h; blot with anti-LDL or anti-ApoB antibody
[2] = target: Fc-tagged secreted perlecan DII (sDII), as purified in Fig. 1D; test: in vitro saturation binding analysis; sDII 10.0 pM with increasing LDL (supplementary Fig. 1); further conditions not shown
[3] = target: Fc-tagged WT perlecan DII from WT CHO cells (UniProt P98160); test: pull-down; Fc-tagged proteins on protein-A agarose incubated with human ApoB-100 (5 μg); 20 mM HEPES pH 6.0, 10 mM NaCl, 1% BSA ('optimal binding condition'), room temperature 1 h; blot with anti-ApoB antibody, quantified from three experiments
[4] = target: Fc-tagged perlecan DI+II from WT CHO cells (UniProt P98160); test: as above
[5] = target: Fc-tagged WT perlecan DII from WT CHO cells (UniProt P98160); test: radioligand binding; stable WT CHO cell lines expressing Fc or Fc-tagged proteins, binding of [I^125]labeled LDL (supplementary Fig. 3)
[6] = target: Fc-tagged perlecan DI+II from WT CHO cells (UniProt P98160); test: as above
[7] = target: Fc-tagged perlecan DI from WT CHO cells (UniProt P98160); test: as above

Sequence of human ApoB-100 (P04114 28-4563): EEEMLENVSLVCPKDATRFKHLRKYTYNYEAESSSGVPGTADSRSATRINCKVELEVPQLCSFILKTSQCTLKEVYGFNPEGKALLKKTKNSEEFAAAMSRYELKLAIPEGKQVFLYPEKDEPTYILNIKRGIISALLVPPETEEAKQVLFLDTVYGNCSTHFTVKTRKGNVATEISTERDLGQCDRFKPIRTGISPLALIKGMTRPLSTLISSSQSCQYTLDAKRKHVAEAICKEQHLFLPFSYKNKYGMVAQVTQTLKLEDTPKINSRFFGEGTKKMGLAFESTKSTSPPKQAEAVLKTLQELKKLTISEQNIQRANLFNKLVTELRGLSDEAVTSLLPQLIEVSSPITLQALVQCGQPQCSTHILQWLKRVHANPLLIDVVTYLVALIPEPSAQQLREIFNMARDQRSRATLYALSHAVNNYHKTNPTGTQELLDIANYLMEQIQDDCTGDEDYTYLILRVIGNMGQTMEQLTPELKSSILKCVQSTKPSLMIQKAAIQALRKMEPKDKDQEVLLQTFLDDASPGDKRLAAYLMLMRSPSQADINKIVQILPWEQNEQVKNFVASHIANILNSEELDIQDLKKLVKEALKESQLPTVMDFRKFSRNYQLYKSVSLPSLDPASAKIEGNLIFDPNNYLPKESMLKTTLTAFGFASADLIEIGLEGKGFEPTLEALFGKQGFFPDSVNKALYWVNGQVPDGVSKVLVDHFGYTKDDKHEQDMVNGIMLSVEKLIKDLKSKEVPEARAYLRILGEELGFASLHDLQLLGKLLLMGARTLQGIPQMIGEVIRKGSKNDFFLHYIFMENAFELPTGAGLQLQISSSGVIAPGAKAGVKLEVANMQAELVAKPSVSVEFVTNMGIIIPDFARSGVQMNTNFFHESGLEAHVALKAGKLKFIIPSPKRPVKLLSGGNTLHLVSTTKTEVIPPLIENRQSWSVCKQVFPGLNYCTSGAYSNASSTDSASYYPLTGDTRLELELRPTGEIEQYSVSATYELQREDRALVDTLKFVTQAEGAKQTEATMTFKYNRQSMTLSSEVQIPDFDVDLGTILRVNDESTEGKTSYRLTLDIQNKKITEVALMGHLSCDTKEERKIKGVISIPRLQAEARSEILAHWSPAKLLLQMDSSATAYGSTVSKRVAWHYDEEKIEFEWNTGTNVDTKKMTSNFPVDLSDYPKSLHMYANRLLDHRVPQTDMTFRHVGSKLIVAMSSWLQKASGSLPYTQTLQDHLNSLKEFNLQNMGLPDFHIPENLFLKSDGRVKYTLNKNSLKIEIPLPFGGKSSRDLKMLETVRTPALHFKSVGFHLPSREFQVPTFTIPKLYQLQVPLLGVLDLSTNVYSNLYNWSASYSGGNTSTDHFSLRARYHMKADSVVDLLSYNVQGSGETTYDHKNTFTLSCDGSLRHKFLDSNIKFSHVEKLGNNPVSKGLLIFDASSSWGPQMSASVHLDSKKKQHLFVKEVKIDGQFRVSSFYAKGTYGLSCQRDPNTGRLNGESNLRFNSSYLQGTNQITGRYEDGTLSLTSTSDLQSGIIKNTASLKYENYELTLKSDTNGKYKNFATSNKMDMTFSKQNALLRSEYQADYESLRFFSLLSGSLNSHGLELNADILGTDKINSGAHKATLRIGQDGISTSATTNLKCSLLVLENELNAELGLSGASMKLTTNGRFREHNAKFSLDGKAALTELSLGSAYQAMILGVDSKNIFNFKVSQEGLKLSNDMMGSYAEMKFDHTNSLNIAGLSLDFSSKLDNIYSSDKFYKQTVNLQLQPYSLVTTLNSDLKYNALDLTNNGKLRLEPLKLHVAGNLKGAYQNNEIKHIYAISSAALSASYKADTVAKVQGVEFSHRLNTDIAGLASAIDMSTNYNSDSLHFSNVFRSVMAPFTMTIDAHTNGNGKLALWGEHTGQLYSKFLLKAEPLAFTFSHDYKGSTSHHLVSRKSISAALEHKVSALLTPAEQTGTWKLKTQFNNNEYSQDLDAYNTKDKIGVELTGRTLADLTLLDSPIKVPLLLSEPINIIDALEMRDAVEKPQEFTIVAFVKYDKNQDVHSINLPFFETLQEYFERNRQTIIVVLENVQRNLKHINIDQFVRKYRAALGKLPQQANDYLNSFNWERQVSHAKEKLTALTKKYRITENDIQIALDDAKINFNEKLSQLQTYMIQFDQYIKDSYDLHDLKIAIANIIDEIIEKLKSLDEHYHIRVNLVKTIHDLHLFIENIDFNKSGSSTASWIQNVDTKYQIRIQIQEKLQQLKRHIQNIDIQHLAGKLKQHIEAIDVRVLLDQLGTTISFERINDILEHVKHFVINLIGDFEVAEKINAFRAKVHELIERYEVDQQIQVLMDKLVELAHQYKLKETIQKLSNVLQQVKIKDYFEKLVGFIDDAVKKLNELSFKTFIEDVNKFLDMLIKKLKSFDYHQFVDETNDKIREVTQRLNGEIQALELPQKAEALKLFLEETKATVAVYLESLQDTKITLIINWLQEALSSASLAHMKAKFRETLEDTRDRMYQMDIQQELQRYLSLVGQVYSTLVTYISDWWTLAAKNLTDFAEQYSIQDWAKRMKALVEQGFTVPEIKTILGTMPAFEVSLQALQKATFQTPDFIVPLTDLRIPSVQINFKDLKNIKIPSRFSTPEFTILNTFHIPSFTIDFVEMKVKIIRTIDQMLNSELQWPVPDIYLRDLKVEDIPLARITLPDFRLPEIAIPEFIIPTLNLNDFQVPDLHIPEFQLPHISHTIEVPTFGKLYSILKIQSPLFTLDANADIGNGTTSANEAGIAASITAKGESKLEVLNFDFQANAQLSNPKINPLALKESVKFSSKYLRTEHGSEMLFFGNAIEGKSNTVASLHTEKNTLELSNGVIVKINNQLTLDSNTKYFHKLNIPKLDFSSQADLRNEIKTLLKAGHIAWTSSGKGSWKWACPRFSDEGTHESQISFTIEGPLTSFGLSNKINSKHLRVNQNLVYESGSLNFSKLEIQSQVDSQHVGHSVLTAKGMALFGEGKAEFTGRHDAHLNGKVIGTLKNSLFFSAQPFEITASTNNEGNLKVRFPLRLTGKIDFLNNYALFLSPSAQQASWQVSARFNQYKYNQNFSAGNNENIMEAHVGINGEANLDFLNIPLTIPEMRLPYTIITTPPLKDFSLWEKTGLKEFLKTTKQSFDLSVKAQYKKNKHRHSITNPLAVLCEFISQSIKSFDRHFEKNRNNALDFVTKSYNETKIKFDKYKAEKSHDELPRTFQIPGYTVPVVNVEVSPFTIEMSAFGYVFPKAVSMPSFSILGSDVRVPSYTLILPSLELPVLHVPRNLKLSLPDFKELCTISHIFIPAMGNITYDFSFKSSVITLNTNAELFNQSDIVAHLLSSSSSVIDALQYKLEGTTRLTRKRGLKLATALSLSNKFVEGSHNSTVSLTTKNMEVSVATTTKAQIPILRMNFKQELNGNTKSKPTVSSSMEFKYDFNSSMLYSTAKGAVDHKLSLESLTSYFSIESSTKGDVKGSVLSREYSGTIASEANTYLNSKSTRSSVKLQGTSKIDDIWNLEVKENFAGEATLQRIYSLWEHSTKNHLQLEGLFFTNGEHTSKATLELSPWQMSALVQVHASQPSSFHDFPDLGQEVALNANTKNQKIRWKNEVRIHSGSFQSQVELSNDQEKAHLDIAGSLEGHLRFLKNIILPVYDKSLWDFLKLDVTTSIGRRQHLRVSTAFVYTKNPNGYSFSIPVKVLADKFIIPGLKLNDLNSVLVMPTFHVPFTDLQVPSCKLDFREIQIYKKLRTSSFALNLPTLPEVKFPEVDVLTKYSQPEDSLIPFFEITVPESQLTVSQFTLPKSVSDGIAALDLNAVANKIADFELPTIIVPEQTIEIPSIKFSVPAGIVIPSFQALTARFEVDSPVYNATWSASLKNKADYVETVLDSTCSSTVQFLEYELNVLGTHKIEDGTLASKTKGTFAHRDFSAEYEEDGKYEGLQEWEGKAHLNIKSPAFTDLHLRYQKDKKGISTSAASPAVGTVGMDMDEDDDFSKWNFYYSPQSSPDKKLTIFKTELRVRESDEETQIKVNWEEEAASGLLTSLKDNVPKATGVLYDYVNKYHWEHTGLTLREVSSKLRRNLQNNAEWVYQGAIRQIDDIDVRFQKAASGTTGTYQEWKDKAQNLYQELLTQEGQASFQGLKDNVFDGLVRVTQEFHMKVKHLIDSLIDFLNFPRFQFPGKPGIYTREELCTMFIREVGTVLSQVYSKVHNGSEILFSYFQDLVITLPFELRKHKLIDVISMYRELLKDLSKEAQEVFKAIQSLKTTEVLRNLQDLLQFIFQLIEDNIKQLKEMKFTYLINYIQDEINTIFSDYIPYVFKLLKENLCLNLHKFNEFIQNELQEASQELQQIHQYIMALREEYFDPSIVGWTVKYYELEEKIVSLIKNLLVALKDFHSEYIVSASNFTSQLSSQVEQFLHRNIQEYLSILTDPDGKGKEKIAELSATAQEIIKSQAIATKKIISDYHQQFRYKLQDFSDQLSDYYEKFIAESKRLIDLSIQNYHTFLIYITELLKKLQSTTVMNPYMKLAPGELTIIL

- percent reduction of binding against mock-treated WT DII [1]: 50%
- LDL concentration at which binding to sDII (10.0 pM) became saturated [2]: 16.3 pM
Substance: human LDL (complex)

- percent increase of binding over WT DI [3]: 24%
- percent increase of binding over DI alone [4]: 90%
- percent increase of binding over WT DII [4]: 53%
Substance: human ApoB-100 (from UniProt P04114 28-4563) (natural protein)

- percent increase of [I^125]LDL binding to cells [5]: 31%
- percent increase of [I^125]LDL binding to cells [6]: 43%
- percent increase of [I^125]LDL binding to cells [7]: 26%
Substance: [I^125]labeled LDL (complex)
